Data reported in article PMC5467231 (2017).
Each block holds one binder with its values, some of them ahead of it.

Legend:
[1] = target: recombinant human FGFR2/Fc chimera (Sino Biological 10824-H03H) (human, UniProt P21802 22-377); experiment: SPR
[2] = target: T1, recombinant human FGFR1/Fc chimera (Sino Biological 10616-H03H) (human, UniProt P11362 22-376); experiment: SPR
T1 chain: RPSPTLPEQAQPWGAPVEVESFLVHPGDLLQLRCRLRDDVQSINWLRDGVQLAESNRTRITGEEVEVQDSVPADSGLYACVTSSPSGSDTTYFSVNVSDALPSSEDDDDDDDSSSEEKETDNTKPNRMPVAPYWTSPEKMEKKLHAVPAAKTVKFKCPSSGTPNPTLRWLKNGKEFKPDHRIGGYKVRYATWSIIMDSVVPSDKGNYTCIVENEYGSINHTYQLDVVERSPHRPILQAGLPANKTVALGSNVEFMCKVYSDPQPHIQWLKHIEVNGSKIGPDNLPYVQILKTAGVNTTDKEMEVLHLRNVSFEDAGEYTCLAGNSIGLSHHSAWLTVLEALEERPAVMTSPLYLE

Chain of recombinant human FGFR2/Fc chimera (Sino Biological 10824-H03H) (P21802 22-377): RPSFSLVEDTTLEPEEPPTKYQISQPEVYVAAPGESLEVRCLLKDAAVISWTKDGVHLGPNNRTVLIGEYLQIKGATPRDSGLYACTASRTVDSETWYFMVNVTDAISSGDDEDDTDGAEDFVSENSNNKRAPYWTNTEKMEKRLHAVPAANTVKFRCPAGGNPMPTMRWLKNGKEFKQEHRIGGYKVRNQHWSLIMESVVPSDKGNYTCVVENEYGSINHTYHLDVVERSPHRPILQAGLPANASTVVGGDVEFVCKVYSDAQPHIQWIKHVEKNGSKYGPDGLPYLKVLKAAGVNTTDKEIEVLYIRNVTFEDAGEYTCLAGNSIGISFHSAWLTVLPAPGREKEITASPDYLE

Kd [1]: 6.94 nM
Kd [2]: 3.61 nM
B1: recombinant FGF4 (Peprotech AF-100-31) (ligand)
chain: APTAPNGTLEAELERRWESLVALSLARLPVAAQPKEAAVQSGAGDYLLGIKRLRRLYCNVGIGFHLQALPDGRIGGAHADTRDSLLELSPVERGVVSIFGVASRFFVAMSSKGKLYGSPFFTDECTFKEILLPNNYNAYESYKYPGMFIALSKNGKTKKGNRVSPTMKVTHFLPRL

Kd [1]: 31.5 nM
Kd [2]: 39.2 nM
B2: recombinant FGF8a (R&D Systems 4745-F8-050) (ligand)
chain: QHVREQSLVTDQLSRRLIRTYQLYSRTSGKHVQVLANKRINAMAEDGDPFAKLIVETDTFGSRVRVRGAETGLYICMNKKGKLIAKSNGKGKDCVFTEIVLENNYTALQNAKYEGWYMAFTRKGRPRKGSKTRQHQREVHFMKRLPRGHHTTEQSLRFEFLNYPPFTRSLRGSQRTWAPEPR
